B1: Grnd^30–97 (extracellular domain of Grindelwald) [Drosophila melanogaster] / Egr^146–409 (extracellular portion of Eiger, His6-tagged) [Drosophila melanogaster] (parent complex)
chain 1: GESRDCHGTICHPVNEFCYVATERCHPCIEVCNNQTHNYDAFLCAKECSAYKTFEPLKAEMLDIQNTQ
chain 2: GADYEDYTDMLNKLNNAHTGTTPTSETTAEGEGETDSASSASNDDNVFDDFTSYNAHKKKQERKSRSIADVRNEEQNIQGNHTELQEKSSNEATSKESPAPLHHRRRMHSRHRHLLVRKARSEDSRPAAHFHLSSRRRHQGSMGYHGDMYIGNDNERNSYQGHFQTRDGVLTVTNTGLYYVYAQICYNNSHDQNGFIVFQGDTPFLQCLNTVPTNMPHKVHTCHTSGLIHLERNERIHLKDIHNDRNAVLREGNNRSYFGIFKV

Variants of: B1
Assay: ITC; parent: 30.8 nM

Row | Variant | Kd
1 | chain 1 GESRDCHGTICHPVNEFCYVATERCHPCIEVCNNQTANYDAFLCAKECSAYKTFEPLKAEMLDIQNTQ [chain 1 H37A] | 4.8 µM
2 | chain 1 GESRDCHGTICHPVNEFCYVATARCHPCIEVCNNQTHNYDAFLCAKECSAYKTFEPLKAEMLDIQNTQ [chain 1 E23A] | 1.3 µM
3 | chain 1 GESRDCHGTICHPVNEFCYVATERCHPCIEVCNNQTHAYDAFLCAKECSAYKTFEPLKAEMLDIQNTQ [chain 1 N38A] | 4.5 µM

Reference: paper PMC8024323, “Drosophila TNFRs Grindelwald and Wengen bind Eiger with different affinities and promote distinct cellular functions” (Nature Communications, 2021)
